Assays:
[1] = molecular target: Human NKp46 (NCR1, CD335), on cells (human) (UniProt O76036); assay: cell-based or functional assay
[2] = molecular target: Human CD94/NKG2A inhibitory receptor (CD159a), on NK cells (human) (UniProt Q13241); assay: cell-based or functional assay

UniProt O76036, sequence (O76036 22-304 Q82K limits assumed): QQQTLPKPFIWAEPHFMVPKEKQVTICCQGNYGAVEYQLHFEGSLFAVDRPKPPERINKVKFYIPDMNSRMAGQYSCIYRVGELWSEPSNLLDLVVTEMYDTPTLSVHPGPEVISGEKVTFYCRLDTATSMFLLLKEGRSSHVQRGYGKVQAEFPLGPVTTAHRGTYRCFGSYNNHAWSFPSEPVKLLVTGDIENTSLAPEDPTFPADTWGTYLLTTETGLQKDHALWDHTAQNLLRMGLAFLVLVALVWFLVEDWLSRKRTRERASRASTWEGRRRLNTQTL

percentage of live NKp46-expressing K562 target cells after 24 hours with CAR T cells, 2:1 [1] | Substance | autologous primary NK cells killed, 2:1 E:T [2]
16.2% | anti-CD19 CAR (αCD19 control CAR), expressed on primary human T cells (scFv) | –
– | anti-NKG2A (HLA-E) CAR (αNKG2A CAR): G peptide/B2M/HLA-E 01:03 single-chain trimer fused to 4-1BB/CD3 zeta, expressed on primary human T cells (peptide-MHC) | 64%

Source: patent US20230348854A1
